The numbers were not newly measured in patent US11878064B2, “Nanoparticle/peptide method of blocking potassium channels” (US Department of the Navy, priority 2019, dated 2024), which cites them from elsewhere.

Where no end group is shown, it is not given here.

In this series the target is T1, ROMK1 channels (Homo sapiens, UniProt P48048).
T1 sequence (P48048 1-391): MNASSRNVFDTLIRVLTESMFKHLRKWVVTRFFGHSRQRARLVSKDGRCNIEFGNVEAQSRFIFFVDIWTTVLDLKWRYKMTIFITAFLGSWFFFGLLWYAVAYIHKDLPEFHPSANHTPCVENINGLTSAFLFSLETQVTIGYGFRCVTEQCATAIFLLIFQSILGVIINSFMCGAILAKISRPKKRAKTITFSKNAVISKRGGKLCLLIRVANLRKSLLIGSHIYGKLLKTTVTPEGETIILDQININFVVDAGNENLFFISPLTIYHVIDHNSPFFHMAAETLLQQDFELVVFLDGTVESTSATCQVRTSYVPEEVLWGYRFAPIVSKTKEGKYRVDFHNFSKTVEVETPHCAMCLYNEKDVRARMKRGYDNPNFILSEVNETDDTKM
As to conditions: read-out: binding affinity.

As to “tertiapin (ALCNCNRIIIPHMCWKKCGKK; ends and bridges not checked; cysteine pairing not given here; UniProt P56587 1-21, looked up) [TPN]”, the Kd was around 2 nM.
